PMC3639176, “HnRNP A1/A2 and SF2/ASF Regulate Alternative Splicing of Interferon Regulatory Factor-3 and Affect Immunomodulatory Functions in Human Non-Small Cell Lung Cancer Cells”

B1: wt-SF2 (ssRNA)
RNA: ACGCUGGGGAAGGAUGUGCCAUGGAUAUGGGAAGGAACCCUAG
B2: wt-A1 (ssRNA)
RNA: UGAAAUAACUAGGGAAAGAGGAUG

How the values were obtained:
GST-SF2/ASF = GST-SF2/ASF (UniProt Q07955 1-248); experiment: EMSA; 2 ug tRNA competitor; LightShift Chemiluminescent EMSA kit; 20 fmol biotinylated RNA, 50 ng protein (20 ng in Fig. 3 legend), 2 ug tRNA, 20 ul, 20 min, room temperature; 6% native PAGE; buffer, salt and pH not stated; conditions: protein: recombinant; label: 3' biotin
GST-hnRNP A1 = GST-hnRNP A1 (UniProt P09651 1-372); experiment: as above; conditions: protein: recombinant; label: 3' biotin
GST-hnRNP A1, sequence (P09651 whole entry): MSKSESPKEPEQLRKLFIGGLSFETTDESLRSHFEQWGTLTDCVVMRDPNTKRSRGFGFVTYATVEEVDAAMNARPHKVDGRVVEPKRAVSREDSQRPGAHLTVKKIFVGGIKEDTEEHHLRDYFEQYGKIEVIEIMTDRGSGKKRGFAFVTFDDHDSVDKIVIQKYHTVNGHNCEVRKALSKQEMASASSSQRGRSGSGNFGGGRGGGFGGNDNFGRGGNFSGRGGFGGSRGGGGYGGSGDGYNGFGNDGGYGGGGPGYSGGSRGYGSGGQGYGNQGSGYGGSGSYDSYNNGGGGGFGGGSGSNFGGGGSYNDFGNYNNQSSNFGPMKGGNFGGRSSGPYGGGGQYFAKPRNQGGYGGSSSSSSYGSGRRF

GST-SF2/ASF, sequence (Q07955 whole entry): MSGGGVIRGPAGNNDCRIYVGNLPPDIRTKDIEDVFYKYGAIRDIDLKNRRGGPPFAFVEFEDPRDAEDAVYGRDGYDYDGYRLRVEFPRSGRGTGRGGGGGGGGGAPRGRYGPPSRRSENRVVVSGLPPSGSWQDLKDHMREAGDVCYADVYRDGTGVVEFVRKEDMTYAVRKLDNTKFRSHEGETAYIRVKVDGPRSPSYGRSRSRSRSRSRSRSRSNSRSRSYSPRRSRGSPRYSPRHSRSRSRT

Row | Binder | binding result (GST-SF2/ASF) | binding result (GST-hnRNP A1)
1 | B1 | binds | 
2 | B2 |  | binds
